One series addresses T1, mouse cKIT (Mus musculus, UniProt P05532).
T1 construct: cKIT receptor extracellular domains (ECD) were diluted in a 2-fold series
T1 sequence (P05532 25-527 limits assumed): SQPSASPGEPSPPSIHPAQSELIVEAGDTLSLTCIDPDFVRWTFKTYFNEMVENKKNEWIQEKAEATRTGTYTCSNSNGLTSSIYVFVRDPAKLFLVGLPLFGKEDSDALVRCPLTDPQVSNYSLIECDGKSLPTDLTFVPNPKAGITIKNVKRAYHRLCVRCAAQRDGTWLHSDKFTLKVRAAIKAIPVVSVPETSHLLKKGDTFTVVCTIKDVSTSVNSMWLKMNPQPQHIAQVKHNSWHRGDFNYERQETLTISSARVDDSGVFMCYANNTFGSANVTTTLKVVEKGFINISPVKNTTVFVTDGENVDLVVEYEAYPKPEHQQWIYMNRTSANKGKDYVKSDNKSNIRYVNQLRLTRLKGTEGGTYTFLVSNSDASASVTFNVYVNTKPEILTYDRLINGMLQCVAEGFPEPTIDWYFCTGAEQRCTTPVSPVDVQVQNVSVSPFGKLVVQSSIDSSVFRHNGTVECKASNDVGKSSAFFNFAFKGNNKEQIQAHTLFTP
Description: SPR (Biacore) affinity measurement. Format: binding. The note with it: 25° C., 1:1 model. The protocol:
(§1) Affinity of the antibodies to cKIT species orthologues and also to cKIT was determined using SPR technology using a Biacore® 2000 instrument (GE Healthcare, Pittsburgh, PA) and with CM5 sensor chips.
(§2) Briefly, HBS-P (0.01 M HEPES, pH 7.4, 0.15 M NaCl, 0.005% Surfactant P20) supplemented with 2% Odyssey® blocking buffer (Li-Cor Biosciences, Lincoln, NE) was used as the running buffer for all the experiments. The immobilization level and analyte interactions were measured by response unit (RU). Pilot experiments were performed to test and confirm the feasibility of the immobilization of the anti-human Fc antibody (Catalog number BR100839, GE Healthcare, Pittsburgh, PA) and the capture of the test antibodies.
(§3) For kinetic measurements, the experiments were performed in which the antibodies were captured to the sensor chip surface via the immobilized anti-human Fc antibody and the ability of the cKIT proteins to bind in free solution was determined. Briefly, 25 μg/ml of anti-human Fc antibody at pH 5 was immobilized on a CM5 sensor chip through amine coupling at flow rate of 5 μl/minute on all two flow cells to reach 10,500 RUs. 0.1-1 μg/ml of test antibodies were then injected at 10 μl/min for 1 minute. Captured levels of the antibodies were generally kept below 200 RUs. Subsequently, 3.125 −50 nM of cKIT receptor extracellular domains (ECD) were diluted in a 2-fold series and injected at a flow rate of 40 μl/min for 3 min over both reference and test flow cells. Table of tested ECDs is listed below (Table 6). Dissociation of the binding was followed for 10 min. After each injection cycle, the chip surface was regenerated with 3 M MgCl2 at 10 μl/min for 30 seconds.
In general terms: Surface plasmon resonance follows binding to a sensor surface in real time, without labels.

Another series concerns the target rat cKIT. Description: SPR (Biacore) affinity measurement. Format: binding. The conditions noted are these: 25° C., 1:1 model. The protocol: as §1, §2, §3
The next series deals with Uke-1 cells. Kind of series: ADCC activity in vitro (Calcein release, NK3.3 effector cells). The conditions noted are these: unconjugated IgG1, effector to target ratio 20 to 1. Format: cell-based. The protocol:
The ability of the unconjugated anti-cKIT antibodies (NEG085, 20376) to mediate antibody dependent cellular cytotoxicity was determined versus Uke-1 cells (target cells; generously provided by Professor Walter Fiedler, University Hospital Eppendorf, Hamburg, Germany) in co-incubation with NK3.3 cells (killer cells or effector cells; kindly provided by Jacky Kornbluth from Saint Louis University). […] In order to calculate the antibody specific lysis of the target cells, a parallel incubation of target cells only without antibody or effector cells served as a baseline and negative control, whereas the positive control or maximal lysis or hundred percent specific lysis was determined by lysis of target cells only with a 1% Triton-X 100 solution. […] Following a co-incubation of target and effector cells, the microtiterplate was centrifuged and an aliquot of the supernatant fluid was transferred to another microtiterplate (96 well, flat-bottomed, black with clear bottom; (Corning Costar, catalog #3904, Tewksbury, MA) and the concentration of free Calcein in solution was determined with a fluorescence counter (Victor 3 ® multilabel counter, Perkin Elmer, Waltham, MA).

The subject of the next series is primary human mast cells. Kind of series: mast cell degranulation (β-hexosaminidase release). Format: cell-based. The conditions noted are these: 0.05-100 nM, 90 min. The protocol: Primary human mast cells were cultured from peripheral human blood according to the methods described by Saito et al., (supra). Mast cells, which had been in liquid culture for a minimum of one week, were pre-treated with 5% Ag-specific IgE JW8 (in-house batch ACE 27283), 95% non-specific monoclonal human IgE (Abbiotec, Cat #12030635, San Diego, CA) and 10 ng/mL rhIL-4 (R&D Systems Cat #204-IL, Minneapolis, MN) for 5 days at 37° C. The cells were then incubated with increasing concentrations (0.05-100 nM) of an isotype control IgG, the anti-human cKIT Abs, 20376 and NEG085, the anti-IgE Ab, LE27, or the NIP(5)BSA antigen, in the presence of a goat anti-human IgG (H+L) Fc-specific Ab (Jackson ImmunoResearch, Cat #109-005-008-JIR, West Grove, PA) for 90 min at 37° C. Cells were then centrifuged and the supernatants were transferred into 96-well black-walled plates prior to the addition of the β-hexosaminidase substrate. Following 90 min incubation at 37° C., the reaction was stopped by the addition of tris-base (Sigma, Cat #T1503-500G, pH 12, St. Louis, MO) and the fluorescence intensity was recorded on the Envision® plate reader.

“Also recorded” adds a separate entry of the source.

Sequence of rat cKIT (as listed by the source): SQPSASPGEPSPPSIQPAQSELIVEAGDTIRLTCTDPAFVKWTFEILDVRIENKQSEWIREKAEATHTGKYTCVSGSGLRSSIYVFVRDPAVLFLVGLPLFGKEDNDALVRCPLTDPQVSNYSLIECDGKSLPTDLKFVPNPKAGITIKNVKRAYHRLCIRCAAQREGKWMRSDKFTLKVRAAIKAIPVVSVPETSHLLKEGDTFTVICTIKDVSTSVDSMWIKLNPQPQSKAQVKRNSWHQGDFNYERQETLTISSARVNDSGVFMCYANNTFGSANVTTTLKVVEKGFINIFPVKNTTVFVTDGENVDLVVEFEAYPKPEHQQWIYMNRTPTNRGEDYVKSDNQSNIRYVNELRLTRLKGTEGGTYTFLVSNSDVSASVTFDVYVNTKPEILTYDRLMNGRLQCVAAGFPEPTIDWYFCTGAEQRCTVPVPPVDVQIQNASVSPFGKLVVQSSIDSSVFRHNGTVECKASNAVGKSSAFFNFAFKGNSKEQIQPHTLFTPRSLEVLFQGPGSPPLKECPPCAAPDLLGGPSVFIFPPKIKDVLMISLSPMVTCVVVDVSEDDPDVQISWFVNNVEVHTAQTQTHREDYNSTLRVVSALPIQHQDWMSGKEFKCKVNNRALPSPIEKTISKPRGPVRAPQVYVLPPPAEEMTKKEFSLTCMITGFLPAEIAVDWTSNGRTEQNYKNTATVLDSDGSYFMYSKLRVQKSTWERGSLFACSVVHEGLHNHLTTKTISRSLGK

B1: NEG085: anti-cKIT antibody of Table 3, VH SEQ ID NO 82, VL SEQ ID NO 91 (antibody, listed as Homo sapiens, V domains shown)
VH: EVQLVESGGGLVQPGGSLRLSCAASGFAFSGYYMAWVRQAPGKGLEWVANINYPGSSTYYLDSVKGRFTISRDNAKNSLYLQMNSLRAEDTAVYYCARGDYYGTTYWYFDVWGQGTTVTVSS
VL: DIQMTQSPSSLSASVGDRVTITCRASQSISSYLNWYQQKPGKAPKLLIYYTSRLQSGVPSRFSGSGSGTDFTLTISSLQPEDFATYYCQQGRRLWSFGGGTKVEIK
As to B1, in the series with mouse cKIT, the “Affinity mouse cKIT (nM)” value is “Not reactive”. For the same molecule, the “Affinity to rat cKIT (nM)” value on rat cKIT is reported as “Not reactive”. The “ADCC killing of target cells” value in the series with Uke-1 cells is recorded as “do not induce ADCC; also recorded: not able to induce ADCC”. In the series with primary human mast cells, the “degranulation of primary human mast cells” value is “do not mediate primary human mast cell degranulation; also recorded: do not induce mast cell degranulation”.

Source of the values: US11833215B2, “CKIT antibody drug conjugates” (Novartis AG, priority 2014, dated 2023).
